Measured values taken from US20100099113A1, “MINIMIZED SMALL PEPTIDES WITH HIGH AFFINITY FOR FACTOR VIII AND FACTOR VIII-LIKE PROTEINS” (Technische Universitat Muenchen, priority 2006, published 2010).
Where no end group is shown, it is not given here. [ ]: non-standard residue; d: D form. NMeY = CN[C@@H](Cc1ccc(O)cc1)C(=O)O

Target: T1, Plasma-derived (pd-) human Factor VIII (Homo sapiens, UniProt P00451)
T1 construct: from tissue; host or cells: human blood plasma (FVIII concentrate)
Assay: Binding of 125I-labeled pd-FVIII to peptide-coated Toyopearl resin (micro-beads assay)
Settings: for % Binding pdFVIII: peptide immobilized on Toyopearl AF-Epoxy-650M resin, 125I-pd-FVIII, 2 hours room temperature, percent of maximal achievable binding (anti-FVIII Mab 8860-coated resin), mean ± SD of four determinations
Procedure: Peptides S1 to S84 were immobilized on the Toyopearl AF-Epoxy-650M resin (Tosoh Biosep) as described by Jungbauer et al. For immobilization, 2.5 mg of each peptide was dissolved in 0.25 mL of the immobilization buffer (0.2 M sodium bicarbonate, pH 10.3), and 0.036 g of the dry resin powder (corresponding to 0.125 mL of swollen resin) was added, followed by incubation of the mixture with gentle rotation for 48 hours. Upon incubation for 48 hours the resin was washed once with immobilization buffer, once with 1 M NaCl and then 3 times with binding buffer, and binding of ^125I-labeled pd-FVIII to the peptide-coated and control resin was tested. The coupling density of each peptide in each of the reported experiments was as mentioned in Table 1. The control 0.25 mL portion of the resin was similarly treated in parallel experiment in the absence of peptide and was subsequently used as a control (designated as Background) in ^125I-pd-FVIII binding experiments. ^125I-pd-FVIII Bound/Background ratios were calculated as the amount of ^125I-pd-FVIII, bound to an immobilized peptide, divided by that bound to uncoated control resin, prepared as described above. This ratio represents a Signal/Noise ratio for the micro-beads assay, since ^125I-pd-FVIII bound to peptide represents the signal value and ^125I-pd-FVIII bound to peptide-uncoated resin represents the background (noise) value.
Plasma-derived (pd-) human Factor VIII (FVIII) was purified from concentrate by immunoaffinity chromatography on an anti-FVIII monoclonal antibody column followed by subsequent concentration of pd-FVIII by ion-exchange chromatography using Resource Q HR5/5 column.
The resin with immobilized peptides was washed in the binding buffer (0.01 M Hepes, 0.1 M NaCl, 5 mM CaCl2, 0.01% Tween-80). Subsequently, the resin was diluted in the binding buffer as 1:7 slurry and aliquoted into Eppendorf tubes (40 μL per tube). ^125I-pd-FVIII (100000 cpm in 10 μL) was added to the tubes and the volume of the mixture was adjusted to 100 μL by adding 50 μL of the binding buffer containing 4% BSA to give a 2% final concentration of BSA. After 2 hours of incubation at room temperature on a rotator, the samples were washed 4 times in the binding. After each wash the tubes were centrifuged at 5000 rpm for 1 min in an Eppendorf microcentrifuge, supernatant was discarded, and the resin was re-suspended in the washing buffer, followed by centrifugation under the same conditions. After four washes the tubes with pellet without supernatant were counted for radioactivity. The resin without peptide was processed similarly to account for non-specific pd-FVIII binding to tubes and resin itself, and the radioactivity in this control tube was considered as a background value. Since ^125I-pd-FVIII contains the some fraction damaged during radiolabeling, binding was calculated as a percent of maximal achievable binding, determined in separate experiment with anti-FVIII Mab 8860-coated resin.
All the measurements were performed in duplicates. Each experiment was performed using two independently prepared immobilized peptide samples. The data presented in each table are the mean values of the four determinations: duplicate determination in the two assays performed with beads on which peptides were independently immobilized on the different days. The value of standard deviation of the above quadruplicate determinations (duplicate determinations in two independent experiments) were typically less than 10% of the measured values of ^125I-pd-FVIII binding to peptides.

[1] = Table 2, peptides with C-terminal cysteine linker immobilized on Toyopearl AF-Epoxy-650M resin
[2] = Table 3, hexapeptides with linker cysteine within the binding sequence

T1 sequence (P00451 20-1667 limits assumed): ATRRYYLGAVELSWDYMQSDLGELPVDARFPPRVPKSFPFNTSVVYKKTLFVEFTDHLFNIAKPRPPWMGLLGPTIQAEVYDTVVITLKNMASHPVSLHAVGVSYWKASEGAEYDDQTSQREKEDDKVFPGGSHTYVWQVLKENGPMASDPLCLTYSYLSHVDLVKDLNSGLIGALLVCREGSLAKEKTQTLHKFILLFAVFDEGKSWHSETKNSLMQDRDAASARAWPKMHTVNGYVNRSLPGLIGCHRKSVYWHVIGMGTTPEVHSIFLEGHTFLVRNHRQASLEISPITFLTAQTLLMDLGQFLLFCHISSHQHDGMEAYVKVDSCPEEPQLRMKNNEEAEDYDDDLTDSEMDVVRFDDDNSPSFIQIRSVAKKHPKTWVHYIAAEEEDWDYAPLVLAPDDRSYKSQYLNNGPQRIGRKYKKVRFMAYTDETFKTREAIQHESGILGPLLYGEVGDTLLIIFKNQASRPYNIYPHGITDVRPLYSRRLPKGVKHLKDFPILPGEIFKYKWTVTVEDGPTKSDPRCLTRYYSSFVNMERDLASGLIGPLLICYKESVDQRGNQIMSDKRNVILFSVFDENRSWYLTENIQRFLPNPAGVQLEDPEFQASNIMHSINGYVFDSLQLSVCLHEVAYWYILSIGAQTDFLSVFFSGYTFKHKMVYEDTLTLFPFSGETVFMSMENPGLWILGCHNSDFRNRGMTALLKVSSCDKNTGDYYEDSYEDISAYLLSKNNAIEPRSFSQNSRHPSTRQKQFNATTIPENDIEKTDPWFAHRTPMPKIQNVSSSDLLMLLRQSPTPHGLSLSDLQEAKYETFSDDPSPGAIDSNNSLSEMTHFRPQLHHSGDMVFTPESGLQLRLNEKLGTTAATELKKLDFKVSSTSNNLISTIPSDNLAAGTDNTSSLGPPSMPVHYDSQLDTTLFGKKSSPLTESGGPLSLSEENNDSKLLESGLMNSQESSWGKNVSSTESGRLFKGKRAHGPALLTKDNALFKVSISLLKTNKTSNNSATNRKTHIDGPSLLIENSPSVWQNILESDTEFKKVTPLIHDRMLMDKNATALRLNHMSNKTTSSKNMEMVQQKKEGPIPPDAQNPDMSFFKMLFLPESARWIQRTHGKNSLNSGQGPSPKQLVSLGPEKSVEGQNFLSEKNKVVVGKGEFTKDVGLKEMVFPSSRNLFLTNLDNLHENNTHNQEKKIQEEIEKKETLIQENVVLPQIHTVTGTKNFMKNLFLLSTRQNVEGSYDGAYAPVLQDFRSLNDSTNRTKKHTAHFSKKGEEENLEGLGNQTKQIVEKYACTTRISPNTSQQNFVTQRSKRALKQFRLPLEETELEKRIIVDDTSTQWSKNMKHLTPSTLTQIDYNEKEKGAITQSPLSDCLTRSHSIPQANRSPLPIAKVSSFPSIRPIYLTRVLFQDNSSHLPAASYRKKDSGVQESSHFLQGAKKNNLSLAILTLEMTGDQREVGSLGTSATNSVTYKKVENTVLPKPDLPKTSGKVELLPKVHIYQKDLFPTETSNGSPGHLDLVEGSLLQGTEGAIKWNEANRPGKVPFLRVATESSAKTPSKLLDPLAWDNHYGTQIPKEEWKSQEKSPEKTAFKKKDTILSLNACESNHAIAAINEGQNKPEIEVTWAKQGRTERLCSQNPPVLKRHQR
T1 sequence (P00451 1668-2351 limits assumed): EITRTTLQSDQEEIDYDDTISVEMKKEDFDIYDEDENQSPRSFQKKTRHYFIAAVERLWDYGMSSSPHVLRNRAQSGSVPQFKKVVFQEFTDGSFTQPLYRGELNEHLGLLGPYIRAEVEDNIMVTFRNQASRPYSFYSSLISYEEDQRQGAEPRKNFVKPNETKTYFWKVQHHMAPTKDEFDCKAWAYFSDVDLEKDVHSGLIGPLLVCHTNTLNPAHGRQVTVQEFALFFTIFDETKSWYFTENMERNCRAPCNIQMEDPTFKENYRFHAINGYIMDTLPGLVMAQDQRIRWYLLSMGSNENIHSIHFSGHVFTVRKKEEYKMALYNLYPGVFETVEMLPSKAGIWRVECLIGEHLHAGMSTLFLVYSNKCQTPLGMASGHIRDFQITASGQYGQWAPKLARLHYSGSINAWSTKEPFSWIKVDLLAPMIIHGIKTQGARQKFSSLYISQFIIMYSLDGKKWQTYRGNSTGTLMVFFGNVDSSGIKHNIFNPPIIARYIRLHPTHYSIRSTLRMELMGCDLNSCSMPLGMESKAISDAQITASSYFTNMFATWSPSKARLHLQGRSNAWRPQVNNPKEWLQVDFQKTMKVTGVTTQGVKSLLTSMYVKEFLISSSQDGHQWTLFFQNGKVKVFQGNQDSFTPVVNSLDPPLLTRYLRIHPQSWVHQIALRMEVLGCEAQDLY

Substance | % Binding pdFVIII [%] | % Binding Factor VIII [1] [%] | % Binding Factor VIII [2] [%]
(N-Me)S-W-E-Y-C [S21] | 48.4 ± 3.7 | – | –
(N-Me)Y-C-S-W-E-Y ([NMeY]CSWEY) [S69] | 7.1 ± 0.7 | – | –
Ac-Y-C-S-W-E-Y (Ac-YCSWEY) [S9] | 81.6 ± 2.8 | – | 82
Ac-Y-C-S-W-E-Y-NH2 (Ac-YCSWEY-NH2) [S2] | 59.2 ± 4.6 | – | –
Ac-Y-C-T-W-D-Y (Ac-YCTWDY) [S14] | 82.3 ± 1.4 | – | –
Ac-Y-C-T-W-D-Y-NH2 (Ac-YCTWDY-NH2) [S4] | 58.5 ± 2.4 | – | –
Y-C-(N-Me)S-W-E-Y [S24] | 14.4 ± 0.4 | – | –
Y-C-A-W-D-Y (YCAWDY) [S16] | 72.0 ± 15.5 | – | 72
Y-C-S-W-(N-Me)E-Y [S25] | 45.2 ± 2.5 | – | –
Y-C-S-W-D-Y (YCSWDY) [S11] | 79.9 ± 4.0 | – | 80
Y-C-S-W-E-(N-Me)Y [S26] | 48.8 ± 3.1 | – | –
Y-C-S-W-E-Y (YCSWEY) [S7] | 64.1 ± 3.2 | – | 64
Y-C-S-W-E-Y-NH2 (YCSWEY-NH2) [S1] | 41.8 ± 3.2 | – | –
Y-C-T-W-D-Y (YCTWDY) [S12] | 74.2 ± 4.2 | – | 74
Y-C-T-W-D-Y-NH2 (YCTWDY-NH2) [S3] | 42.3 ± 4.3 | – | –
Y-C-T-W-E-Y (YCTWEY) [S10] | 80.3 ± 1.3 | – | 80
Y-C-V-W-D-Y (YCVWDY) [S18] | 72.0 ± 1.2 | – | 72
Y-F-(N-Me)S-W-E-Y-C [S22] | 47.6 ± 4.6 | – | –
Y-F-S-W-(N-Me)E-Y-C [S23] | 53.1 ± 0.3 | – | –
Y-c-S-W-E-Y [S6] | 55.8 ± 2.3 | – | –

The remaining lines, values ahead:

% Binding pdFVIII [%] | % Binding Factor VIII [1] [%] | % Binding Factor VIII [2] [%] | Substance
48.9 ± 3.0 | 49 | – | Ac-H-S-W-E-Y-C (Ac-HSWEYC) [S31]
42.6 ± 1.3 | 43 | – | Ac-S-W-E-Y-C [S30]
62.2 ± 4.4 | 62 | – | Ac-Y-H-S-W-E-Y-C (Ac-YHSWEYC) [S32]
– | 50 | – | EYHSWEYC [reference compound]
54.4 ± 4.9 | 54 | – | H-S-W-E-Y-C (HSWEYC) [S29]
38.6 ± 0.4 | – | – | S-(1-Nal)-E-Bip(4,4′)-C [S62]
41.4 ± 1.2 | – | – | S-(2-Nal)-E-Bip(4,4′)-C [S63]
36.2 ± 1.5 | – | – | S-Bip(4,4′)-E-Bpa-C [S64]
35.4 ± 6.6 | – | – | S-Bpa-E-(1-Nal)-C [S57]
42.0 ± 5.3 | – | – | S-Bpa-E-(2-Nal)-C [S58]
30.9 ± 2.1 | – | – | S-Bpa-E-Bip(4,4′)-C [S59]
1.1 ± 3.3 | – | – | S-Bpa-E-Bpa-C [S61]
33.9 ± 3.2 | – | – | S-Bpa-E-Phe(4-Cl)-C [S60]
41.3 ± 1.4 | – | – | S-Bpa-E-Phg-C [S72]
30.6 ± 0.4 | – | – | S-Bpa-E-Y-C [S71]
39.2 ± 2.4 | – | – | S-Bta-E-Bpa-C [S65]
47.7 ± 0.0 | – | – | S-Phe(3,4-Cl)-E-Bpa-C [S67]
40.0 ± 2.5 | – | – | S-Phe(4-Cl)-E--Bpa-C [S66]
40.0 ± 2.8 | – | – | S-W-E-Bpa-C [S73]
72.1 ± 7.2 | – | – | Y-C-A-W-E-Y (YCAWEY) [S81]
72.2 ± 1.7 | – | – | Y-C-S-(N-Me)W-E-Y [S70]
94.1 ± 4.70 | – | – | Y-C-V-W-E-Y (YCVWEY) [S82]
34.4 ± 3.2 | – | – | Y-H-S-Phe(3,4-Cl)-E-Y-C [S77]
26.6 ± 1.3 | – | – | Y-H-V-W-E-Y-C (YHVWEYC) [S76]
47.7 ± 0.45 | – | – | Y-W-E-Y-C [S79]
54.3 ± 2.1 | – | – | Y-Y-S-W-E-Y-C (YYSWEYC) [S68]
57.5 ± 4.6 | – | – | Y-f-(N-Me)S-W-E-Y-C [S27]
65.1 ± 2.5 | – | – | Y-f-S-W-(N-Me)E-Y-C [S28]
